Data published in US20210032365A1 (Chugai, published 2021).
Substitutions are numbered along the chain they refer to. Values belong to the binder of their own block, whether it stands above or below them.

Key:
human C1s [1] = biological target: T1, human C1s (human, UniProt P09871 16-688); test: SPR (Biacore T200, 37C), Ab captured on protein A/G; pH 5.8, 1.2 mM Ca
T1 construct: Analyte in the Biacore assays; also called hC1s; serum-derived human C1s (CompTech)
T1 sequence: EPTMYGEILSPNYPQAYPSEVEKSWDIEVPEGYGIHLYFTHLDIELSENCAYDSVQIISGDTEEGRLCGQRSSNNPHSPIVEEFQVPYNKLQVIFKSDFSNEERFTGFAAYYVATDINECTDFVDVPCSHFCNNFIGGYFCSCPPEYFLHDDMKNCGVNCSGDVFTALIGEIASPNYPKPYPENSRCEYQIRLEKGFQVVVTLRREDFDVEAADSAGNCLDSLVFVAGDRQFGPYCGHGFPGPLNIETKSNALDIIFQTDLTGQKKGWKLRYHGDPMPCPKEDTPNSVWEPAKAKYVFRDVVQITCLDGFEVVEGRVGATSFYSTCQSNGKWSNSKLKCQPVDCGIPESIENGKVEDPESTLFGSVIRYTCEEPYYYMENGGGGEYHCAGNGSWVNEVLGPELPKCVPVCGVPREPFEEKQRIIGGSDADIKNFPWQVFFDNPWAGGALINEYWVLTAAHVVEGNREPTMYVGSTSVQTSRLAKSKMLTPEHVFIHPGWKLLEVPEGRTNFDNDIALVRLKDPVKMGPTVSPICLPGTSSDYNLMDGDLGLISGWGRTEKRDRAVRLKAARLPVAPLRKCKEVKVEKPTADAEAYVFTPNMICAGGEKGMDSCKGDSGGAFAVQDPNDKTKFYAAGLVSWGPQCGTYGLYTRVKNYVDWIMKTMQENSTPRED
Experimental: (§1) All variants were transiently expressed and purified by the method described above. The binding affinity of each histidine-substituted variant at pH 7.4 and pH 5.8 was determined at 37 degrees C. using Biacore T200 instrument (GE Healthcare). Recombinant Protein A/G (Pierce) was immobilized onto all flow cells of a CM4 sensor chip using an amine coupling kit (GE Healthcare). Antibodies and analytes were prepared in 7(+) buffer (20 mM ACES, 150 mM NaCl, 1.2 mM CaCl2, 0.05% Tween 20, 0.005% NaN3, pH 7.4), 5(+) buffer (20 mM ACES, 150 mM NaCl, 1.2 mM CaCl2, 0.05% Tween 20, 0.005% NaN3, pH 5.8), or 5(−) buffer (20 mM ACES, 150 mM NaCl, 3 micro M CaCl2, 0.05% Tween 20, 0.005% NaN3, pH 5.8). Each antibody was captured onto the sensor surface by protein A/G. Antibody capture levels were aimed at 200 resonance unit (RU). Serum-derived human C1s (CompTech) or recombinant C1s prepared in EXAMPLE 1 was injected at 50 nM, followed by dissociation. The sensor surface was regenerated in each cycle with 10 mM Glycine-HCl, pH 1.5. […] The ratio of KD 5.8+ to KD 7.4+(“KD 5+/7+”) and that of KD 5.8− to KD 7.4+(“KD 5−/7+”) were calculated. When the KD 5+/7+ or KD 5−/7+ of a variant is larger than that of the parent antibody IPN009VH2-SG4GK/IPN009VK3-SK1, that variant is considered to be “pH”- or “pH and Ca”-dependent, respectively. When binding response in 5(+) buffer and/or in 5(−) buffer of a variant is much lower than that of IPN09VH2/IPN009VK3, that variant is also considered as “pH”- and/or “pH and Ca”-dependent. Therefore, such mutations are effective to generate “pH”- and/or “pH and Ca”-dependent antibody. To further enhance “pH” and/or “pH and Ca” dependency, a combination of histidine mutations was conducted. Antibodies with combinations of histidine mutations were evaluated using Biacore by the method described above.

human C1s [2] = biological target: T1, human C1s; test: SPR (Biacore T200, 37C), Ab captured on protein A/G; pH 5.8, 1.2 mM Ca; pH 5.8, 1.2 mM Ca
human C1s [3] = biological target: T1, human C1s; test: SPR (Biacore T200, 37C), Ab captured on protein A/G; pH 7.4, 1.2 mM Ca; pH 7.4, 1.2 mM Ca
Experimental: All variants were transiently expressed and purified by the method described above. The binding affinity of each histidine-substituted variant at pH 7.4 and pH 5.8 was determined at 37 degrees C. using Biacore T200 instrument (GE Healthcare). Recombinant Protein A/G (Pierce) was immobilized onto all flow cells of a CM4 sensor chip using an amine coupling kit (GE Healthcare). Antibodies and analytes were prepared in 7(+) buffer (20 mM ACES, 150 mM NaCl, 1.2 mM CaCl2, 0.05% Tween 20, 0.005% NaN3, pH 7.4), 5(+) buffer (20 mM ACES, 150 mM NaCl, 1.2 mM CaCl2, 0.05% Tween 20, 0.005% NaN3, pH 5.8), or 5(−) buffer (20 mM ACES, 150 mM NaCl, 3 micro M CaCl2, 0.05% Tween 20, 0.005% NaN3, pH 5.8). Each antibody was captured onto the sensor surface by protein A/G. Antibody capture levels were aimed at 200 resonance unit (RU). Serum-derived human C1s (CompTech) or recombinant C1s prepared in EXAMPLE 1 was injected at 50 nM, followed by dissociation. The sensor surface was regenerated in each cycle with 10 mM Glycine-HCl, pH 1.5. […] The ratio of KD 5.8+ to KD 7.4+(“KD 5+/7+”) and that of KD 5.8− to KD 7.4+(“KD 5−/7+”) were calculated. […] Antibodies with combinations of histidine mutations were evaluated using Biacore by the method described above.

human C1s [4] = biological target: T1, human C1s; test: SPR (Biacore T200, 37C), Ab captured on protein A/G; pH 7.4, 1.2 mM Ca
Experimental: as §1

human C1s [5] = biological target: T1, human C1s; test: SPR (Biacore T200, 37C), Ab captured on protein A/G; pH 5.8, 3 uM Ca
Experimental: as §1

human C1s [6] = biological target: T1, human C1s; test: SPR; KD at pH 5.8 (1.2 mM Ca) over KD at pH 7.4 (1.2 mM Ca)
Experimental: as §1

human C1s [7] = biological target: T1, human C1s; test: SPR; KD at pH 5.8 (3 uM Ca) over KD at pH 7.4 (1.2 mM Ca)
Experimental: as §1

human C1s [8] = biological target: T1, human C1s; test: SPR; KD at pH 5.8 over KD at pH 7.4, both 1.2 mM Ca
Experimental: The binding affinity of all histidine-substituted variants at pH 7.4 and pH 5.8 were determined at 37 degrees C. using Biacore T200 instrument (GE Healthcare). Recombinant Protein A/G (Pierce) was immobilized onto all flow cells of a CM4 sensor chip using amine coupling kit (GE Healthcare). Antibodies and analytes were prepared in 7(+) buffer (20 mM ACES, 150 mM NaCl, 1.2 mM CaCl2, 0.05% Tween 20, 0.005% NaN3, pH 7.4) or 5(+) buffer (20 mM ACES, 150 mM NaCl, 1.2 mM CaCl2), 0.05% Tween 20, 0.005% NaN3, pH 5.8). Each antibody was captured onto the sensor surface by protein A/G. Antibody capture levels were aimed at 200 resonance unit (RU). […] Sensor surface was regenerated each cycle with 10 mM Glycine-HCl pH 1.5. […] An additional dissociation phase at pH 5.8 was integrated immediately after the dissociation phase at pH 7.4. This dissociation rate in 5(+) buffer was determined by processing and fitting data using Scrubber 2.0 (BioLogic Software) curve fitting software. […]

human C1s [9] = biological target: T1, human C1s; test: SPR; koff (5.8+ of 775+): extra dissociation phase at pH 5.8 (1.2 mM Ca) right after the pH 7.4 dissociation, Scrubber fit
Experimental: (§2) The binding affinity of all histidine-substituted variants at pH 7.4 and pH 5.8 were determined at 37 degrees C. using Biacore T200 instrument (GE Healthcare). Recombinant Protein A/G (Pierce) was immobilized onto all flow cells of a CM4 sensor chip using amine coupling kit (GE Healthcare). Antibodies and analytes were prepared in 7(+) buffer (20 mM ACES, 150 mM NaCl, 1.2 mM CaCl2, 0.05% Tween 20, 0.005% NaN3, pH 7.4) or 5(+) buffer (20 mM ACES, 150 mM NaCl, 1.2 mM CaCl2), 0.05% Tween 20, 0.005% NaN3, pH 5.8). Each antibody was captured onto the sensor surface by protein A/G. Antibody capture levels were aimed at 200 resonance unit (RU). […] Sensor surface was regenerated each cycle with 10 mM Glycine-HCl pH 1.5. […] An additional dissociation phase at pH 5.8 was integrated immediately after the dissociation phase at pH 7.4. This dissociation rate in 5(+) buffer was determined by processing and fitting data using Scrubber 2.0 (BioLogic Software) curve fitting software.

human C1s [10] = biological target: T1, human C1s; test: SPR (Biacore T200, 37C), Ab captured on protein A/G, serum C1s 50 and 200 nM; pH 5.8, 1.2 mM Ca
Experimental: as §2

human C1s [11] = biological target: T1, human C1s; test: SPR (Biacore T200, 37C), Ab captured on protein A/G, serum C1s 12.5 and 50 nM; pH 7.4, 1.2 mM Ca
Experimental: as §2

human C1s [12] = biological target: T1, human C1s; test: SPR (Biacore T200, 37C), Ab captured on protein A/G, serum C1s 200 and 800 nM; pH 5.8, 1.2 mM Ca; value marked 'Not Adopted due to low binding response at pH 5.8'
Experimental: as §2

koff (human C1s [1]): 0.0292 s⁻¹
kon (human C1s [2]): 1.77e+06 M⁻¹ s⁻¹
koff (human C1s [3]): 0.00088 s⁻¹
kon (human C1s [4]): 527000 M⁻¹ s⁻¹
koff (human C1s [5]): 0.00504 s⁻¹
kon (human C1s [5]): 485000 M⁻¹ s⁻¹
KD 5(+)/7(+) (human C1s [6]): 9.9
KD 5(-)/7(+) (human C1s [7]): 6.23
B1: C1_IPN92H0288-SG4GK/IPN93L0211-SK1 (antibody, human IgG4 S228P, kappa)
heavy: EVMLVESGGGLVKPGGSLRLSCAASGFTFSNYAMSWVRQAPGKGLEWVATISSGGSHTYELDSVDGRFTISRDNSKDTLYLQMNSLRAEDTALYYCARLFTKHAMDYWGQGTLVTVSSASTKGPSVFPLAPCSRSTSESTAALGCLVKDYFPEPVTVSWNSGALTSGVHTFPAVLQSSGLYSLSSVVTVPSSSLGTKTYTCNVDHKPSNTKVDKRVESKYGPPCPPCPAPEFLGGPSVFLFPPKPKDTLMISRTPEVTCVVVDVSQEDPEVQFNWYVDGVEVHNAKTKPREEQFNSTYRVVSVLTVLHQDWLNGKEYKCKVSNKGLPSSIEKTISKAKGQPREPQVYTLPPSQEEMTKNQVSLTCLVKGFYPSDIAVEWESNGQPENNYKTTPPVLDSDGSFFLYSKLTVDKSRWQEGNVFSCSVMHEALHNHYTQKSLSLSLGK
light: QIVLTQSPATLSLSPGERATLSCTASSEVSESYLHWYQQKPGKAPKLWIYSTSNLASGVPSRFSGSGSGTDYTLTISSLQPEDFATYYCHQYYRLHPITFGQGTKLEIKRTVAAPSVFIFPPSDEQLKSGTASVVCLLNNFYPREAKVQWKVDNALQSGNSQESVTEQDSKDSTYSLSSTLTLSKADYEKHKVYACEVTHQGLSSPVTKSFNRGEC
notes: also called IPN92H0288/IPN93L0211

KD (5.8+)/KD (7.4+) (human C1s [8]): 8.9
koff (human C1s [9]): 0.00354 s⁻¹
Kd (human C1s [10]): 10.7 nM
Kd (human C1s [11]): 1.2 nM
koff (human C1s [11]): 0.000461 s⁻¹
B2: IPN92H0038/IPN93L0024-SG136 (antibody, human IgG1, kappa, name in Kabat numbering)
heavy: EVMLVESGGGLVKPGGSLRLSCAASGFTFSNYAMSWVRQAPGKGLEWVATISSGGSHTYYLDSVKHRFTISRDNSKDTLYLQMNSLRAEDTALYYCARLFTGHAMDYWGQGTLVTVSSASTKGPSVFPLAPSSKSTSGGTAALGCLVKDYFPEPVTVSWNSGALTSGVHTFPAVLQSSGLYSLSSVVTVPSSSLGTQTYICNVNHKPSNTKVDKKVEPKSCDKTHTCPPCPAPELRRGPSVFLFPPKPKDTLMISRTPEVTCVVVDVSHEDPEVKFNWYVDGVEVHNAKTKPREEQYNSTYRVVSVLTVLHQDWLNGKEYKCKVSNKGLPSSIEKTISKAKGQPREPQVYTLPPSREEMTKNQVSLTCLVKGFYPSDIAVEWESNGQPENNYKTTPPVLDSDGSFFLYSKLTVDKSRWQQGNVFSCSVMHEALHNHYTQKSLSLSP
light: B1 light with E28S, E31S, S173C
notes: also called IPN92H0038/IPN93L0024 (lot PPU2045)

KD (5.8+)/KD (7.4+) (human C1s [8]): 0.9
koff (human C1s [9]): 0.000691 s⁻¹
Kd (human C1s [10]): 2.48 nM
Kd (human C1s [11]): 2.77 nM
koff (human C1s [11]): 0.000628 s⁻¹
B3: IPN009VH2/IPN93L0023-SG136 (antibody, human IgG1, kappa, name in Kabat numbering)
heavy: B2 heavy with H66G, H103Y
light: B1 light with E28S, E31S, L95H, H96P, S173C
notes: also called IPN009VH2/IPN93L0023 (lot PPU2043)

koff (human C1s [9]): 0.0134 s⁻¹
Kd (human C1s [12]): 8530 nM
koff (human C1s [12]): 0.0237 s⁻¹
Kd (human C1s [11]): 1.43 nM
koff (human C1s [11]): 0.000822 s⁻¹
B4: IPN92H0286/IPN93L0205-SG136 (antibody, human IgG1, kappa, name in Kabat numbering)
heavy: B2 heavy with Y32K
light: B1 light with E28S, E31S, Y33R, Y93H, L95H, H96P, S173C
notes: also called IPN92H0286/IPN93L0205 (lot PPU2048); IPN92H0286/IPN93L205-SG136
